# Measurements from patent publication US20230277632A1, “MODIFIED PlySs2 LYSINS AND ANTIBIOTIC COMBINATIONS FOR USE AGAINST GRAM-POSITIVE BACTERIA” (ContraFect Corporation, priority 2020, published 2023).
# Where “and” joins values, the source holds several entries; their conditions need not be identical. Identical values can stand only once.
# Legend:
# S. aureus isolates [1] = assay: MIC determination (broth microdilution) against 8 S. aureus isolates; format: cell-based; set-up: MIC pp296 (AST media): unit not given beside the values; settings: for MIC pp296 (mouse serum): 100% ICR mouse serum; for MIC pp296 (human serum): 100% human serum; for MIC pp296 (AST media): caMHB-HSD
# Procedure: Suitable methods for assessing the activity of a modified lysin polypeptide as disclosed herein are well known in the art and described in the examples. […] For example, MIC values for a modified lysin polypeptide may be determined against e.g., laboratory Staphylococcus aureus strains, in e.g., Mueller-Hinton broth or Mueller-Hinton broth supplemented with serum, such as horse serum.
# The pp296 MICs were determined based on (1) cation-adjusted Mueller-Hinton Broth with 25% horse serum and 0.5 mM DTT (caMHB-HSD); (2) human serum (100% serum); and (3) ICR mice (100% serum). Vancomycin and daptomycin MICs of the isolate strains were determined in accordance with the broth microdilution method as outlined by CLSI. Results of the MIC determination are shown below in Table 2. The bacterial isolates were frozen at −80° C. in skim milk.
# S. aureus isolates [2] = assay: In vivo efficacy of vancomycin in combination with pp296, neutropenic murine thigh infection model; settings: 24 h
# Procedure: (§1) Study animals: Specific pathogen-free female ICR mice (average body weight 23 grams) were provided food and water ad libitum and maintained and used in accordance with National Research Council recommendations. Animals were allowed a 48-hour post-delivery acclimation period before every experiment. Mice were rendered transiently neutropenic by injection of cyclophosphamide via intraperitoneal (IP) route at a dose of 150 mg/kg of body weight at four days before bacterial inoculation and 100 mg/kg of body weight at one day before bacterial inoculation.
# Neutropenic Thigh Infection Model: Two transfers of the bacterial isolates were performed onto trypticase soy agar plates with 5% sheep blood and placed into an incubator at 37° C. for approximately 24 hours. After an 18-24 hour incubation of the second transfer, a suspension of approximately 10^7 CFU/mL was made for inoculation. Final bacterial inoculum concentrations were confirmed by serial dilution and plating techniques. Thigh infection with the test isolate was produced by intramuscular injection of 0.1 mL of the bacterial inoculum into each thigh of the mice. Antimicrobial therapy was initiated 2 hours after bacterial inoculation, as detailed below. […]
# (§2) Untreated control mice (n=3) were sacrificed just prior to antibiotic administration and 24 hours after bacterial inoculation. Animals sacrificed prior to antibiotic initiation served as 0-hour control animals, representing initial bacterial burden. […] Treatment mice (n=3/group) were sacrificed at the end of the 24 hour treatment period. After sacrifice, both thighs for each mouse were homogenized in normal saline. Serial dilutions were plated on Trypticase soy agar with 5% sheep blood and incubated for 18 to 20 hours at 37.0 to determine the CFU. Efficacy was calculated as the change in bacterial density obtained in treated mice after 24 hours compared with the numbers in the 0-hour control animals. Bacterial density represents the average CFU determined from 3 mice, each contributing 2 thighs.
# S. aureus isolates [3] = assay: In vivo efficacy of daptomycin in combination with pp296, neutropenic murine thigh infection model; settings: 24 h
# Procedure: as §1
# Neutropenic Thigh Infection Model: Two transfers of the bacterial isolates were performed onto trypticase soy agar plates with 5% sheep blood and placed into an incubator at 37° C. for approximately 24 hours. After an 18-24 hour incubation of the second transfer, a suspension of approximately 10^7 CFU/mL was made for inoculation. Final bacterial inoculum concentrations were confirmed by serial dilution and plating techniques. Thigh infection with the test isolate was produced by intramuscular injection of 0.1 mL of the bacterial inoculum into each thigh of the mice. Antimicrobial therapy was initiated 2 hours after bacterial inoculation, as detailed below.
# as §2
# For the 4 S. aureus isolates HPV107, CAIRD426, JMI227, and NRS123, the following sub-therapeutic daptomycin dosage regimen was adopted: 0.76 mg/kg at 0 hrs, 0.4 mg/kg at 4 hrs, 0.24 mg/kg at 10 hrs, and 0.12 mg/kg at 17 hrs.
molecule,measurement,setting,value
"pp296: modified PlySs2 lysin, SEQ ID NO: 6: L92W, V104S, V128T, Y137S, Y164K, N184D, S198Q (protein) MTTVNEALNNVRAQVGSGVSVGNGECYALASWYERMISPDATVGLGAGVGWVSGAIGDTISAKNIGSSYNWQANGWTVSTSGPFKAGQIVTWGATPGNPYGHVSIVEAVDGDRLTILEQNYGGKRYPTRNYYSAASSRQQVVHYITPPGTVAQSAPNLAGSRSKRETGTMTVTVDALNVRRAPDTSGEIVAVYKRGEQFDYDTAIIDVNGYAWVSYIGGSGKRNYVATGATKDGKRFGNAWGTFK",MIC pp296 (mouse serum),S. aureus isolates [1]; ATCC 29213 MSSA,256
same,MIC pp296 (mouse serum),S. aureus isolates [1]; CAIRD426 MRSA,32
same,MIC pp296 (mouse serum),S. aureus isolates [1]; HPV107 MRSA,128
same,MIC pp296 (mouse serum),S. aureus isolates [1]; JMI227 MRSA,64
same,MIC pp296 (mouse serum),S. aureus isolates [1]; JMI4789 MRSA,256
same,MIC pp296 (mouse serum),S. aureus isolates [1]; NRS100 (COL) MRSA,32
same,MIC pp296 (mouse serum),S. aureus isolates [1]; NRS123 (MW2) MRSA,256
same,MIC pp296 (mouse serum),S. aureus isolates [1]; NRS271 MRSA/LRSA,64
same,MIC pp296 (human serum),S. aureus isolates [1]; ATCC 29213 MSSA,1
same,MIC pp296 (human serum),S. aureus isolates [1]; CAIRD426 MRSA,1
same,MIC pp296 (human serum),S. aureus isolates [1]; HPV107 MRSA,1
same,MIC pp296 (human serum),S. aureus isolates [1]; JMI227 MRSA,1
same,MIC pp296 (human serum),S. aureus isolates [1]; JMI4789 MRSA,1
same,MIC pp296 (human serum),S. aureus isolates [1]; NRS100 (COL) MRSA,1
same,MIC pp296 (human serum),S. aureus isolates [1]; NRS123 (MW2) MRSA,1
same,MIC pp296 (human serum),S. aureus isolates [1]; NRS271 MRSA/LRSA,0.5
same,MIC pp296 (AST media),S. aureus isolates [1]; ATCC 29213 MSSA,1
same,MIC pp296 (AST media),S. aureus isolates [1]; CAIRD426 MRSA,1
same,MIC pp296 (AST media),S. aureus isolates [1]; HPV107 MRSA,1
same,MIC pp296 (AST media),S. aureus isolates [1]; JMI227 MRSA,0.5
same,MIC pp296 (AST media),S. aureus isolates [1]; JMI4789 MRSA,1
same,MIC pp296 (AST media),S. aureus isolates [1]; NRS100 (COL) MRSA,1
same,MIC pp296 (AST media),S. aureus isolates [1]; NRS123 (MW2) MRSA,1
same,MIC pp296 (AST media),S. aureus isolates [1]; NRS271 MRSA/LRSA,1
same,Replicate Log10 CFU/thigh data,"S. aureus isolates [2]; ATCC2921, pp296 50 mg/kg alone, 50 mg/kg",8.15 Log10 CFU/thigh (2×) and 8.58 Log10 CFU/thigh and 7.86 Log10 CFU/thigh and 6.81 Log10 CFU/thigh and 8.00 Log10 CFU/thigh
same,Replicate Log10 CFU/thigh data,"S. aureus isolates [2]; CAIRD426, pp296 50 mg/kg alone (VAN 1.5 mg/kg study)",5.41 Log10 CFU/thigh and 5.80 Log10 CFU/thigh and 7.92 Log10 CFU/thigh and 8.33 Log10 CFU/thigh and 4.90 Log10 CFU/thigh and 6.18 Log10 CFU/thigh
same,Replicate Log10 CFU/thigh data,"S. aureus isolates [2]; CAIRD426, pp296 50 mg/kg alone, Run #1, 50 mg/kg",6.04 Log10 CFU/thigh and 4.62 Log10 CFU/thigh and 5.46 Log10 CFU/thigh and 4.94 Log10 CFU/thigh and 6.53 Log10 CFU/thigh and 6.00 Log10 CFU/thigh
same,Replicate Log10 CFU/thigh data,"S. aureus isolates [2]; CAIRD426, pp296 50 mg/kg alone, Run #2, 50 mg/kg",8.14 Log10 CFU/thigh and 7.97 Log10 CFU/thigh and 4.83 Log10 CFU/thigh and 4.79 Log10 CFU/thigh and 5.84 Log10 CFU/thigh and 6.07 Log10 CFU/thigh
same,Replicate Log10 CFU/thigh data,"S. aureus isolates [2]; HPV107, pp296 50 mg/kg alone (VAN 1.5 mg/kg study)",8.08 Log10 CFU/thigh and 8.00 Log10 CFU/thigh and 7.05 Log10 CFU/thigh and 7.21 Log10 CFU/thigh and 4.64 Log10 CFU/thigh and 6.57 Log10 CFU/thigh
same,Replicate Log10 CFU/thigh data,"S. aureus isolates [2]; HPV107, pp296 50 mg/kg alone, Run #1, 50 mg/kg",5.08 Log10 CFU/thigh and 4.96 Log10 CFU/thigh and 5.36 Log10 CFU/thigh and 6.45 Log10 CFU/thigh and 6.14 Log10 CFU/thigh and 6.78 Log10 CFU/thigh
same,Replicate Log10 CFU/thigh data,"S. aureus isolates [2]; HPV107, pp296 50 mg/kg alone, Run #2, 50 mg/kg",7.35 Log10 CFU/thigh and 8.03 Log10 CFU/thigh (2×) and 6.53 Log10 CFU/thigh and 7.04 Log10 CFU/thigh and 6.30 Log10 CFU/thigh
same,Replicate Log10 CFU/thigh data,"S. aureus isolates [2]; JMI227, pp296 50 mg/kg alone, 50 mg/kg",5.01 Log10 CFU/thigh and 6.67 Log10 CFU/thigh and 7.71 Log10 CFU/thigh and 8.05 Log10 CFU/thigh and 4.72 Log10 CFU/thigh and 7.34 Log10 CFU/thigh
same,Replicate Log10 CFU/thigh data,"S. aureus isolates [2]; JMI4789, pp296 50 mg/kg alone, 50 mg/kg",5.02 Log10 CFU/thigh and 5.19 Log10 CFU/thigh and 7.69 Log10 CFU/thigh and 8.08 Log10 CFU/thigh and 5.11 Log10 CFU/thigh and 6.15 Log10 CFU/thigh
same,Replicate Log10 CFU/thigh data,"S. aureus isolates [2]; NRS100, pp296 50 mg/kg alone (VAN 1.5 mg/kg study)",4.79 Log10 CFU/thigh and 5.29 Log10 CFU/thigh and 4.72 Log10 CFU/thigh and 4.90 Log10 CFU/thigh (2×) and 5.73 Log10 CFU/thigh
same,Replicate Log10 CFU/thigh data,"S. aureus isolates [2]; NRS100, pp296 50 mg/kg alone, Run #1, 50 mg/kg",4.75 Log10 CFU/thigh and 4.81 Log10 CFU/thigh and 4.78 Log10 CFU/thigh and 4.83 Log10 CFU/thigh and 4.48 Log10 CFU/thigh and 4.70 Log10 CFU/thigh
same,Replicate Log10 CFU/thigh data,"S. aureus isolates [2]; NRS100, pp296 50 mg/kg alone, Run #2, 50 mg/kg",4.62 Log10 CFU/thigh and 4.73 Log10 CFU/thigh and 4.66 Log10 CFU/thigh and 4.41 Log10 CFU/thigh and 5.94 Log10 CFU/thigh and 6.34 Log10 CFU/thigh
same,Replicate Log10 CFU/thigh data,"S. aureus isolates [2]; NRS123, pp296 50 mg/kg alone, 50 mg/kg",6.53 Log10 CFU/thigh and 8.01 Log10 CFU/thigh and 8.08 Log10 CFU/thigh and 7.48 Log10 CFU/thigh and 8.41 Log10 CFU/thigh and 8.38 Log10 CFU/thigh
same,Replicate Log10 CFU/thigh data,"S. aureus isolates [2]; NRS217, pp296 50 mg/kg alone (VAN 1.5 mg/kg study)",7.46 Log10 CFU/thigh and 7.45 Log10 CFU/thigh and 4.60 Log10 CFU/thigh and 4.79 Log10 CFU/thigh and 7.49 Log10 CFU/thigh and 6.72 Log10 CFU/thigh
same,Replicate Log10 CFU/thigh data,"S. aureus isolates [2]; NRS217, pp296 50 mg/kg alone, Run #1, 50 mg/kg",4.75 Log10 CFU/thigh and 6.79 Log10 CFU/thigh and 5.06 Log10 CFU/thigh and 4.93 Log10 CFU/thigh and 5.72 Log10 CFU/thigh and 5.76 Log10 CFU/thigh
same,Replicate Log10 CFU/thigh data,"S. aureus isolates [2]; NRS217, pp296 50 mg/kg alone, Run #2, 50 mg/kg",5.35 Log10 CFU/thigh and 5.98 Log10 CFU/thigh and 6.08 Log10 CFU/thigh and 5.42 Log10 CFU/thigh and 4.32 Log10 CFU/thigh and 6.26 Log10 CFU/thigh
same,Replicate Log10 CFU/thigh data,"S. aureus isolates [2]; isolate CAIRD426, pp296 50 mg/kg alone, VAN 5 mg/kg study",8.95 Log10 CFU/thigh and 7.96 Log10 CFU/thigh and 7.74 Log10 CFU/thigh and 8.34 Log10 CFU/thigh
same,mean bacterial density vs starting inoculum,"S. aureus isolates [2]; pp296 0.5 mg/kg IV + vancomycin 1.5 mg/kg SC, 4 isolates",0.92±1.24 log10 CFU/thigh
same,mean bacterial reduction vs starting inoculum,"S. aureus isolates [2]; pp296 0.5 mg/kg IV + vancomycin 3 mg/kg q12h SC, 8 isolates",−0.26±1.10 log10 CFU/thigh
same,mean bacterial reduction vs starting inoculum,"S. aureus isolates [2]; pp296 0.5 mg/kg IV + vancomycin 5 mg/kg SC, 4 isolates",−0.59±0.79 log10 CFU/thigh
same,mean bacterial density vs starting inoculum,"S. aureus isolates [2]; pp296 50 mg/kg IV + vancomycin 1.5 mg/kg SC, 4 isolates",−0.61±0.82 log10 CFU/thigh
same,mean bacterial reduction vs starting inoculum,"S. aureus isolates [2]; pp296 50 mg/kg IV + vancomycin 3 mg/kg q12h SC, 8 isolates",−1.01±0.41 log10 CFU/thigh
same,mean bacterial reduction vs starting inoculum,"S. aureus isolates [2]; pp296 50 mg/kg IV + vancomycin 5 mg/kg SC, 4 isolates",−0.85±0.54 log10 CFU/thigh
same,average growth vs starting inoculum,"S. aureus isolates [2]; pp296 50 mg/kg alone, 4 isolates (VAN 1.5 mg/kg study)",0.75±1.24 log10 CFU/thigh
same,average growth vs starting inoculum,"S. aureus isolates [2]; pp296 50 mg/kg alone, 4 isolates (VAN 5 mg/kg study)",1.44±1.43 log10 CFU/thigh
same,average growth vs starting inoculum,"S. aureus isolates [2]; pp296 50 mg/kg q24h IV alone, 8 isolates (VAN 3 mg/kg study)",0.37±1.27 log10 CFU/thigh
same,mean bacterial density vs starting inoculum,S. aureus isolates [3]; pp296 0.5 mg/kg IV + sub-therapeutic daptomycin,0.80±1.19 log10 CFU/thigh
same,mean bacterial density vs starting inoculum,S. aureus isolates [3]; pp296 50 mg/kg IV + sub-therapeutic daptomycin,−0.72±0.59 log10 CFU/thigh
same,average growth vs starting inoculum,"S. aureus isolates [3]; pp296 50 mg/kg alone, 8 isolates (daptomycin study)",1.36±1.35 log10 CFU/thigh
